Target: protein A from Staphylococcus aureus (Staphylococcus aureus) (UniProt P38507)
Test: fluorescence intensity of the solution left after immobilization (plate reader); solutions used for functionalization with FITC antibody analysed after the immobilization process on substrate with and without protein A; VICTOR3 plate reader; calibration curve to quantify the antibody that remained in solution

CD4 (VIT4)-FITC mouse anti-human antibody (Miltenyi Biotec)
percent of the starting antibody solution immobilised: < 60%

— publication PMC8538552
